From the RNAGym collection of RNA variant scans (doi:10.1021/acssynbio.7b00057) come the findings set out here.

First the molecules themselves.
B1: Pistol ribozyme (parent)
chain: GGGUCGUUGUUCCAUAAUCGCGUGGAUAUGGCACGCAAGUUUCUACCGGGCACCGUAAAUGUCCGACUGGAGCCGUUCGGGCGGCUAUAAACAGACCUCAGGCCCGAAGCGUGGCGGCACCUGCCGCCGGUGGUAAAAAAGAUCGGAAGAGCACACGUCU

The variants in the data set derive from B1. Description: aptazyme ON/OFF ratio, guanine; higher = stronger switching; co-transcriptional cleavage with and without guanine.
For the variant GGGUCGACGGACAAUAAUCGCGUGGAUAUGGCACGCAAGUUUCUACCGGGCACCGUAAAUGUCCGACUGGAGCCGUUCGGGCGGCUAUAAACAGACCUCAGGCCCGAAGCGUGGCGGCACCUGCCGCCGGUGGUAAAAAAGAUCGGAAGAGCACACGUCU, the “aptazyme ON/OFF ratio” value is 1.12.

As for GGGUCGCUCAGGGAUAAUCGCGUGGAUAUGGCACGCAAGUUUCUACCGGGCACCGUAAAUGUCCGACUGGAGCCGUUCGGGCGGCUAUAAACAGACCUCAGGCCCGAAGCGUGGCGGCACCUGCCGCCGGUGGUAAAAAAGAUCGGAAGAGCACACGUCU, the “aptazyme ON/OFF ratio” value worked out at 1.09.

Turning to GGGUCGCCUUUGUAUAAUCGCGUGGAUAUGGCACGCAAGUUUCUACCGGGCACCGUAAAUGUCCGACUGGAGCCGUUCGGGCGGCUAUAAACAGACCUCAGGCCCGAAGCGUGGCGGCACCUGCCGCCGGUGGUAAAAAAGAUCGGAAGAGCACACGUCU, the “aptazyme ON/OFF ratio” value amounted to 1.17.

Turning to GGGUCGGGCGGCUAUAAUCGCGUGGAUAUGGCACGCAAGUUUCUACCGGGCACCGUAAAUGUCCGACUGGAGCCGUUCGGGCGGCUAUAAACAGACCUCAGGCCCGAAGCGUGGCGGCACCUGCCGCCGGUGGUAAAAAAGAUCGGAAGAGCACACGUCU, the “aptazyme ON/OFF ratio” value was found to be 1.28.

As for GGGUCGGAAAGUAAUAAUCGCGUGGAUAUGGCACGCAAGUUUCUACCGGGCACCGUAAAUGUCCGACUGGAGCCGUUCGGGCGGCUAUAAACAGACCUCAGGCCCGAAGCGUGGCGGCACCUGCCGCCGGUGGUAAAAAAGAUCGGAAGAGCACACGUCU, the “aptazyme ON/OFF ratio” value was determined as 1.07.

As to GGGUCGAAUUAAAAUAAUCGCGUGGAUAUGGCACGCAAGUUUCUACCGGGCACCGUAAAUGUCCGACUGGAGCCGUUCGGGCGGCUAUAAACAGACCUCAGGCCCGAAGCGUGGCGGCACCUGCCGCCGGUGGUAAAAAAGAUCGGAAGAGCACACGUCU, the “aptazyme ON/OFF ratio” value came to 1.04.

As for GGGUCGAUGUUGCAUAAUCGCGUGGAUAUGGCACGCAAGUUUCUACCGGGCACCGUAAAUGUCCGACUGGAGCCGUUCGGGCGGCUAUAAACAGACCUCAGGCCCGAAGCGUGGCGGCACCUGCCGCCGGUGGUAAAAAAGAUCGGAAGAGCACACGUCU, the “aptazyme ON/OFF ratio” value was 1.44.

Turning to GGGUCGCCGGAGUAUAAUCGCGUGGAUAUGGCACGCAAGUUUCUACCGGGCACCGUAAAUGUCCGACUGGAGCCGUUCGGGCGGCUAUAAACAGACCUCAGGCCCGAAGCGUGGCGGCACCUGCCGCCGGUGGUAAAAAAGAUCGGAAGAGCACACGUCU, the “aptazyme ON/OFF ratio” value turned out to be 1.09.

Take GGGUCGCGGGUUGAUAAUCGCGUGGAUAUGGCACGCAAGUUUCUACCGGGCACCGUAAAUGUCCGACUGGAGCCGUUCGGGCGGCUAUAAACAGACCUCAGGCCCGAAGCGUGGCGGCACCUGCCGCCGGUGGUAAAAAAGAUCGGAAGAGCACACGUCU: the “aptazyme ON/OFF ratio” value is 1.23.

As for GGGUCGCUGUAGCAUAAUCGCGUGGAUAUGGCACGCAAGUUUCUACCGGGCACCGUAAAUGUCCGACUGGAGCCGUUCGGGCGGCUAUAAACAGACCUCAGGCCCGAAGCGUGGCGGCACCUGCCGCCGGUGGUAAAAAAGAUCGGAAGAGCACACGUCU, the “aptazyme ON/OFF ratio” value was 1.21.

On to GGGUCGGGGGUGUAUAAUCGCGUGGAUAUGGCACGCAAGUUUCUACCGGGCACCGUAAAUGUCCGACUGGAGCCGUUCGGGCGGCUAUAAACAGACCUCAGGCCCGAAGCGUGGCGGCACCUGCCGCCGGUGGUAAAAAAGAUCGGAAGAGCACACGUCU, for which the “aptazyme ON/OFF ratio” value is 1.26.

GGGUCGAGGUUAGAUAAUCGCGUGGAUAUGGCACGCAAGUUUCUACCGGGCACCGUAAAUGUCCGACUGGAGCCGUUCGGGCGGCUAUAAACAGACCUCAGGCCCGAAGCGUGGCGGCACCUGCCGCCGGUGGUAAAAAAGAUCGGAAGAGCACACGUCU: the “aptazyme ON/OFF ratio” value was 1.25.

Turning to GGGUCGACCUUUGAUAAUCGCGUGGAUAUGGCACGCAAGUUUCUACCGGGCACCGUAAAUGUCCGACUGGAGCCGUUCGGGCGGCUAUAAACAGACCUCAGGCCCGAAGCGUGGCGGCACCUGCCGCCGGUGGUAAAAAAGAUCGGAAGAGCACACGUCU, the “aptazyme ON/OFF ratio” value worked out at 1.06.

Turning to GGGUCGAACUGUCAUAAUCGCGUGGAUAUGGCACGCAAGUUUCUACCGGGCACCGUAAAUGUCCGACUGGAGCCGUUCGGGCGGCUAUAAACAGACCUCAGGCCCGAAGCGUGGCGGCACCUGCCGCCGGUGGUAAAAAAGAUCGGAAGAGCACACGUCU, the “aptazyme ON/OFF ratio” value came to 1.71.

Turning to GGGUCGGCCAAUAAUAAUCGCGUGGAUAUGGCACGCAAGUUUCUACCGGGCACCGUAAAUGUCCGACUGGAGCCGUUCGGGCGGCUAUAAACAGACCUCAGGCCCGAAGCGUGGCGGCACCUGCCGCCGGUGGUAAAAAAGAUCGGAAGAGCACACGUCU, the “aptazyme ON/OFF ratio” value came to 1.07.

For the variant GGGUCGAAGCAAUAUAAUCGCGUGGAUAUGGCACGCAAGUUUCUACCGGGCACCGUAAAUGUCCGACUGGAGCCGUUCGGGCGGCUAUAAACAGACCUCAGGCCCGAAGCGUGGCGGCACCUGCCGCCGGUGGUAAAAAAGAUCGGAAGAGCACACGUCU, the “aptazyme ON/OFF ratio” value is 1.16.

Take GGGUCGCUUCAUAAUAAUCGCGUGGAUAUGGCACGCAAGUUUCUACCGGGCACCGUAAAUGUCCGACUGGAGCCGUUCGGGCGGCUAUAAACAGACCUCAGGCCCGAAGCGUGGCGGCACCUGCCGCCGGUGGUAAAAAAGAUCGGAAGAGCACACGUCU: the “aptazyme ON/OFF ratio” value is 1.13.

Turning to GGGUCGCUUAUGGAUAAUCGCGUGGAUAUGGCACGCAAGUUUCUACCGGGCACCGUAAAUGUCCGACUGGAGCCGUUCGGGCGGCUAUAAACAGACCUCAGGCCCGAAGCGUGGCGGCACCUGCCGCCGGUGGUAAAAAAGAUCGGAAGAGCACACGUCU, the “aptazyme ON/OFF ratio” value turned out to be 1.13.

As for GGGUCGUUUAAUUAUAAUCGCGUGGAUAUGGCACGCAAGUUUCUACCGGGCACCGUAAAUGUCCGACUGGAGCCGUUCGGGCGGCUAUAAACAGACCUCAGGCCCGAAGCGUGGCGGCACCUGCCGCCGGUGGUAAAAAAGAUCGGAAGAGCACACGUCU, the “aptazyme ON/OFF ratio” value came to 1.08.

On to GGGUCGCAAAGCCAUAAUCGCGUGGAUAUGGCACGCAAGUUUCUACCGGGCACCGUAAAUGUCCGACUGGAGCCGUUCGGGCGGCUAUAAACAGACCUCAGGCCCGAAGCGUGGCGGCACCUGCCGCCGGUGGUAAAAAAGAUCGGAAGAGCACACGUCU, for which the “aptazyme ON/OFF ratio” value is 1.31.

Turning to GGGUCGAUAACACAUAAUCGCGUGGAUAUGGCACGCAAGUUUCUACCGGGCACCGUAAAUGUCCGACUGGAGCCGUUCGGGCGGCUAUAAACAGACCUCAGGCCCGAAGCGUGGCGGCACCUGCCGCCGGUGGUAAAAAAGAUCGGAAGAGCACACGUCU, the “aptazyme ON/OFF ratio” value came out at 1.16.

Regarding GGGUCGAUCAAUGAUAAUCGCGUGGAUAUGGCACGCAAGUUUCUACCGGGCACCGUAAAUGUCCGACUGGAGCCGUUCGGGCGGCUAUAAACAGACCUCAGGCCCGAAGCGUGGCGGCACCUGCCGCCGGUGGUAAAAAAGAUCGGAAGAGCACACGUCU, the “aptazyme ON/OFF ratio” value was 1.1.

GGGUCGACUUAACAUAAUCGCGUGGAUAUGGCACGCAAGUUUCUACCGGGCACCGUAAAUGUCCGACUGGAGCCGUUCGGGCGGCUAUAAACAGACCUCAGGCCCGAAGCGUGGCGGCACCUGCCGCCGGUGGUAAAAAAGAUCGGAAGAGCACACGUCU: the “aptazyme ON/OFF ratio” value worked out at 1.32.

For the variant GGGUCGGCGGGGAAUAAUCGCGUGGAUAUGGCACGCAAGUUUCUACCGGGCACCGUAAAUGUCCGACUGGAGCCGUUCGGGCGGCUAUAAACAGACCUCAGGCCCGAAGCGUGGCGGCACCUGCCGCCGGUGGUAAAAAAGAUCGGAAGAGCACACGUCU, the “aptazyme ON/OFF ratio” value was found to be 1.18.

For the variant GGGUCGCAUUAGCAUAAUCGCGUGGAUAUGGCACGCAAGUUUCUACCGGGCACCGUAAAUGUCCGACUGGAGCCGUUCGGGCGGCUAUAAACAGACCUCAGGCCCGAAGCGUGGCGGCACCUGCCGCCGGUGGUAAAAAAGAUCGGAAGAGCACACGUCU, the “aptazyme ON/OFF ratio” value worked out at 1.14.

In the case of GGGUCGUAUAAAGAUAAUCGCGUGGAUAUGGCACGCAAGUUUCUACCGGGCACCGUAAAUGUCCGACUGGAGCCGUUCGGGCGGCUAUAAACAGACCUCAGGCCCGAAGCGUGGCGGCACCUGCCGCCGGUGGUAAAAAAGAUCGGAAGAGCACACGUCU, the “aptazyme ON/OFF ratio” value amounted to 1.23.

Regarding GGGUCGUACGUUUAUAAUCGCGUGGAUAUGGCACGCAAGUUUCUACCGGGCACCGUAAAUGUCCGACUGGAGCCGUUCGGGCGGCUAUAAACAGACCUCAGGCCCGAAGCGUGGCGGCACCUGCCGCCGGUGGUAAAAAAGAUCGGAAGAGCACACGUCU, the “aptazyme ON/OFF ratio” value worked out at 1.22.

Consider GGGUCGUACACACAUAAUCGCGUGGAUAUGGCACGCAAGUUUCUACCGGGCACCGUAAAUGUCCGACUGGAGCCGUUCGGGCGGCUAUAAACAGACCUCAGGCCCGAAGCGUGGCGGCACCUGCCGCCGGUGGUAAAAAAGAUCGGAAGAGCACACGUCU, for which the “aptazyme ON/OFF ratio” value was determined as 1.21.

Consider GGGUCGACAAAAUAUAAUCGCGUGGAUAUGGCACGCAAGUUUCUACCGGGCACCGUAAAUGUCCGACUGGAGCCGUUCGGGCGGCUAUAAACAGACCUCAGGCCCGAAGCGUGGCGGCACCUGCCGCCGGUGGUAAAAAAGAUCGGAAGAGCACACGUCU, for which the “aptazyme ON/OFF ratio” value worked out at 1.25.

For the variant GGGUCGUGAGUGGAUAAUCGCGUGGAUAUGGCACGCAAGUUUCUACCGGGCACCGUAAAUGUCCGACUGGAGCCGUUCGGGCGGCUAUAAACAGACCUCAGGCCCGAAGCGUGGCGGCACCUGCCGCCGGUGGUAAAAAAGAUCGGAAGAGCACACGUCU, the “aptazyme ON/OFF ratio” value is 1.16.

With GGGUCGGUAAACCAUAAUCGCGUGGAUAUGGCACGCAAGUUUCUACCGGGCACCGUAAAUGUCCGACUGGAGCCGUUCGGGCGGCUAUAAACAGACCUCAGGCCCGAAGCGUGGCGGCACCUGCCGCCGGUGGUAAAAAAGAUCGGAAGAGCACACGUCU, the “aptazyme ON/OFF ratio” value worked out at 2.42.

As to GGGUCGAAAUGGUAUAAUCGCGUGGAUAUGGCACGCAAGUUUCUACCGGGCACCGUAAAUGUCCGACUGGAGCCGUUCGGGCGGCUAUAAACAGACCUCAGGCCCGAAGCGUGGCGGCACCUGCCGCCGGUGGUAAAAAAGAUCGGAAGAGCACACGUCU, the “aptazyme ON/OFF ratio” value was 1.32.

Turning to GGGUCGGUCCGAAAUAAUCGCGUGGAUAUGGCACGCAAGUUUCUACCGGGCACCGUAAAUGUCCGACUGGAGCCGUUCGGGCGGCUAUAAACAGACCUCAGGCCCGAAGCGUGGCGGCACCUGCCGCCGGUGGUAAAAAAGAUCGGAAGAGCACACGUCU, the “aptazyme ON/OFF ratio” value was 1.09.

Turning to GGGUCGUUAAGUCAUAAUCGCGUGGAUAUGGCACGCAAGUUUCUACCGGGCACCGUAAAUGUCCGACUGGAGCCGUUCGGGCGGCUAUAAACAGACCUCAGGCCCGAAGCGUGGCGGCACCUGCCGCCGGUGGUAAAAAAGAUCGGAAGAGCACACGUCU, the “aptazyme ON/OFF ratio” value was 1.42.

In the case of GGGUCGCGAGAUAAUAAUCGCGUGGAUAUGGCACGCAAGUUUCUACCGGGCACCGUAAAUGUCCGACUGGAGCCGUUCGGGCGGCUAUAAACAGACCUCAGGCCCGAAGCGUGGCGGCACCUGCCGCCGGUGGUAAAAAAGAUCGGAAGAGCACACGUCU, the “aptazyme ON/OFF ratio” value was 1.46.

Regarding GGGUCGGUUAACCAUAAUCGCGUGGAUAUGGCACGCAAGUUUCUACCGGGCACCGUAAAUGUCCGACUGGAGCCGUUCGGGCGGCUAUAAACAGACCUCAGGCCCGAAGCGUGGCGGCACCUGCCGCCGGUGGUAAAAAAGAUCGGAAGAGCACACGUCU, the “aptazyme ON/OFF ratio” value came to 3.18.
